For orientation: IC50 means the concentration needed to halve the response being measured. Read a high IC50 as weaker potency in that assay.

In assay [1] the target is cynomolgus formyl peptide receptor 1 (cynomolgus monkey).
Assay [2] has the same target. The experiment in a line: FMAT competition binding on cells.

B1: Fpro0165 IgG (antibody, V domains shown)
VH: EVQLVESGGGLVKPGGSLRLSCAASGFTFSNAWMNWVRQAPGKGLEWVGRVKSKTDGGAADYAAPVKGRFTISRDDSKNTLYLQMNSLKTEDTAVYYCTTDQLGYDFWNGYYTDTLYYYFGMDVWGPGTTVTVSS
VL: DIVMTQSPLSLPVTPGEPASISCRSSQPLLAMDGHNYLDWYLQKPGQSPQVLIYQSKWRASGVPDRFSGSGSGTDFTLKISRVEAEDVGVYYCMQALQTPLTFGGGTKVEIK
With B1, in assay [1], the IC50, inhibition of fMLFF-induced calcium release, cynomolgus FPR1 HEK cells stood at 12 nM. For the same molecule, the IC50 in assay [2] came to 20 nM.

B2: Fpro0025 IgG (antibody, V domains shown)
VH: EVQLVESGGGLVKPGGSLRLSCAASGFTFSNAWMNWVRQAPGKGLEWVGRIKSKTDGGAADYAAPVKGRFTISRDDSKNTLYLQMNSLKTEDTAVYYCTTDQLGYDFWSGYYTDTLYYYFGMDVWGPGTTVTVSS
VL: DIVMTQSPLSLPVTPGEPASISCRSSQPLLAMDGHNYLDWYLQKPGQSPQVLIYLGSNRASGVPDRFSGSGSGTDFTLKISRVEAEDVGVYYCMQALQTPLTFGGGTKVEIK
The molecule B2 returned an IC50 in assay [2] of 33 nM.

B3: Fpro0067 IgG (antibody, V domains shown)
VH: EVQLVESGGGLVKPGGSLRLSCAASGFTFSNAWMNWVRQAPGKGLEWVGRIKSKTDGGAADYAAPVKGRFTISRDDSKNTLYLQMNSLKTEDTAVYYCTTDQLGYDFWSGYYTDTLYYYFGMDVWGPGTTVTVSS
VL: DIVMTQSPLSLPVTPGEPASISCRSSQPLLAMDGHNYLDWYLQKPGQSPQVLIYQSKWRASGVPDRFSGSGSGTDFTLKISRVEAEDVGVYYCMQALQTPLTFGGGTKVEIK
For B3, in assay [2], the IC50 was determined as 13 nM.

B4: Fpro0084 IgG (antibody, V domains shown)
VH: EVQLVESGGGLVKPGGSLRLSCAASGFTFSNAWMNWVRQAPGKGLEWVGRIKSKTDGGAADYAAPVKGRFTISRDDSKNTLYLQMNSLKTEDTAVYYCTTDQLGYDFWSGYYTDTLYYYFGMDVWGPGTTVTVSS
VL: DIVMTQSPLSLPVTPGEPASISCRSSQQLQAYDGHNYLDWYLQKPGQSPQVLIYLGSNRASGVPDRFSGSGSGTDFTLKISRVEAEDVGVYYCMQALQTPLTFGGGTKVEIK
With B4, in assay [2], the IC50 was found to be 13 nM.
